This assay concerns the target HER-2 (human (endogenous in SKBR3 and T47D)) (UniProt P04626).

Consider two substances from paper PMC4488448.

The substance eSrtA-conjugated cFRP5-DM1 (antibody) returned an IC50 of killing of HER-2-overexpressing SKBR3 cells (luminescent cell viability assay; Fig 4A) of 0.067 µg/mL.

In turn, “eSrtA-conjugated cFRP5-maytansine (antibody)” had an IC50 of killing of HER-2-overexpressing SKBR3 cells (luminescent cell viability assay; Fig 4A) of 0.0779 µg/mL.
